Data taken from the RNAGym collection of RNA variant scans (doi:10.7554/elife.80360).

B1: Hairpin Ribozyme (parent)
chain: GUCCUCUUUCACGUGCGCGUGAAAGAGAGAAGUGAACCAGAGAAACACACGUUGUGGUAUAUUACCUGGUA

Variants of: B1
Experiment: self-cleavage, relative activity (ratio to wild type); higher = more cleavage; co-transcriptional

Variant	self-cleavage
A30G C50A	0.0824
A30G C50U	0.0809
G29A A47C	0.107
G29A A47U	0.107
G29U U53C	0.197
A30G G57U	0.0464
A30G G57A	0.0803
G29U C50A	0.113
G29U C50G	0.184
G29C G68U	0.125
A28U A71G	0.673
A28U G54U	0.3
A30C U55C	0.161
A30C U55A	0.146
G29C G34C	0.116
A30C C48U	0.17
A28U U67G	0.201
A28G U52G	0.948
A28G U52C	0.763
A30C U52A	0.214
A30C U52C	0.133
G29C A49G	0.178
G29C A49U	0.109
A30C A36U	0.122

Variant	self-cleavage
A30G G68U	0.169
A30U U33G	0.138
A30C C46G	0.0771
A30C C46A	0.0713
A31C U58A	0.171
A31C U58C	0.247
A31C U58G	0.131
G29U U70C	0.127
G29U U55G	0.062
G29U U55A	0.0925
G29U U55C	0.0858
A30U A49C	0.111
A30C A41G	0
A30G U62G	0.112
A28U U60A	0.493
A31C C50G	0.0635
A30U G40C	0.13
A28G U63G	0.223
A28G U63C	0.138
A28G U63A	0.141
G29C U67A	0.179
G29A A71G	0.112
G29A A71C	0.295
A28U G51U	0.485

Variant	self-cleavage
A28U G51C	0.49
A28G U67C	0.276
G29U C65U	0.105
G29A U33A	0.203
A30G G54C	0.178
A28U G42A	0.167
G29A C38G	0.101
A30C U58A	0.134
A30C U58G	0.103
A30U A41G	0.106
A28U G68C	0.151
A28U G68A	0.153
A28U G68U	0.272
A31C U55G	0.1
A30C G69A	0.0574
A30C G69C	0.318
G29C G40U	0.171
A28G G69A	0.48
G29A U55G	0.143
G29A U55A	0.13
G29A U53A	0.109
A30U A31C	0.288
G29U G54A	0.104
G29C A35G	0.178

Variant	self-cleavage
A30C A61C	0.251
A28U A45G	0.121
A28U A59U	0.185
A28U A59C	0.0961
G29U A43G	0.134
A30U C65G	0.228
A30U C65U	0.0165
A30G U70C	0.0846
A30G U70A	0.0747
A30G U70G	0.262
A30C U60G	0.181
G29A A35U	0.0646
A28G G34A	1.25
A30C A44C	0.0571
A28U A44U	0.0894
G29C A30U	0.0915
G29C A30G	0.218
A30G A43C	0.1
G29U A36G	0.275
G29U A36C	0.101
G29U A64G	0.0899
A30C A45G	0.194
A30C A45U	0.0541
A30C U70G	0.0924

Variant	self-cleavage
A30C A47U	0.105
G29A C65U	0.145
A28U U58A	0.36
A30U G57C	0.0918
A30G A41G	0.112
G29A U52G	0.0639
G29A U52A	0.115
G29C C48G	0.0534
A30U C50G	0.157
G29C C37U	0.121
A31C A36G	0.124
A31C A36C	0.123
G29A C66G	0.0855
A28U G29A	0.0881
A31C C65G	0.116
G29U U62C	0.0779
G29U U62A	0.103
A31C G56C	0.115
A31C G56U	0.182
A31C A61C	0.194
A31C A61U	0.0706
A28U G69A	0.137
A28U G69U	0.0991
A30G U58C	0.0836

Variant	self-cleavage
A31C A64U	0.11
G29C U70A	0.162
G29C U70G	0.119
A28U A61G	0.0909
G29A G42A	0.139
A30U G42A	0.11
G29U A59G	0.0822
G29U A59U	0.104
A28U G40C	0.0881
G29C A44C	0.126
A30C U62C	0.0331
G29A G69C	0.14
G29A G69U	0.113
A28G U62A	0.287
A28G U62G	0.183
G29U U33G	0.0639
A28G G42U	0.375
G29U A41C	0.217
A28U C65G	0.151
A28U C65U	0.153
G29U G69C	0.0911
G29U G69A	0.105
A30U G54U	0.165
A30U G54A	0.137

Variant	self-cleavage
A28G U70C	0.859
A30G C38U	0.21
G29C A59C	0.205
G29C A59G	0.0639
A30G C37A	0.192
A28U G56A	0.174
A28U G56C	0.151
A28U G56U	0.0609
A28U G57C	0.113
A30G A59U	0.305
G29A G32A	0.181
A30U G69U	0.149
A30U G69A	0.146
A30G A36U	0.152
G29U C37G	0.0458
A30U U63A	0.13
G29U U58G	0.168
G29U A31C	0.2
G29U A31U	0.151
G29U A31G	0.167
A30C C50U	0.118
A31C G51A	0.179
A30G C65A	0.148
